Laboratory results published in patent US20240150491A1 (Genentech, published 2024).

T1: human KLK5 (human, UniProt Q9Y337 67-293)
T1 sequence: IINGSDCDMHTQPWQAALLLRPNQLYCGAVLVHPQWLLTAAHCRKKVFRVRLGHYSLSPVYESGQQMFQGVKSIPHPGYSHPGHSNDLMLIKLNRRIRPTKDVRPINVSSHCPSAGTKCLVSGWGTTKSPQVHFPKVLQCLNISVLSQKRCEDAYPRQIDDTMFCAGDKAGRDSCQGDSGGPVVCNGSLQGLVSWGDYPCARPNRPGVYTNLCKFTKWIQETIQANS

T2: cynomolgus monkey KLK5 (cynomolgus monkey, UniProt Q9Y337 67-293 (human entry))
T2 chain: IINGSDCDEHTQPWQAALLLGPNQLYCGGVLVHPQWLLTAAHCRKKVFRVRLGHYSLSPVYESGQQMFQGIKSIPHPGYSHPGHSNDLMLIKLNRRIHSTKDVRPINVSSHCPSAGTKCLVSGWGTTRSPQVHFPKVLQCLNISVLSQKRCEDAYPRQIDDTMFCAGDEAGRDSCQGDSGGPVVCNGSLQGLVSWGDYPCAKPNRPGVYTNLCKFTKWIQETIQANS


Columns and labels:
Assay in all cases: cell-based or functional assay
[1] = target: T3, human KLK7 (SEQ ID NO: 4 plus a C-terminal FLAG tag) (human, UniProt P49862 30-253)
[2] = target: T1, human KLK5
[3] = target: T4, cyno KLK7 (SEQ ID NO: 6 plus a C-terminal FLAG tag) (cynomolgus monkey, UniProt P49862 30-253 (human entry))
[4] = target: T2, cynomolgus monkey KLK5
[5] = target: T3, human KLK7 (SEQ ID NO: 4 plus a …); remark: listed apart in the source
[6] = target: T4, cyno KLK7 (SEQ ID NO: 6 plus a …); remark: listed apart in the source

T4 sequence (P49862 other isoform, or with tags, fused parts or gaps): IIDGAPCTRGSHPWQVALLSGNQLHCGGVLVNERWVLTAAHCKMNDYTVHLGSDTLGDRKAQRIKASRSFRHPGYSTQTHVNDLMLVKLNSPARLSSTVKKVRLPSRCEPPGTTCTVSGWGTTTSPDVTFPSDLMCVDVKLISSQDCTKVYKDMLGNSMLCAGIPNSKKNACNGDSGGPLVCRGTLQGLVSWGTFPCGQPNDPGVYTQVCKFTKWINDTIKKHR
T3 sequence (P49862 30-253): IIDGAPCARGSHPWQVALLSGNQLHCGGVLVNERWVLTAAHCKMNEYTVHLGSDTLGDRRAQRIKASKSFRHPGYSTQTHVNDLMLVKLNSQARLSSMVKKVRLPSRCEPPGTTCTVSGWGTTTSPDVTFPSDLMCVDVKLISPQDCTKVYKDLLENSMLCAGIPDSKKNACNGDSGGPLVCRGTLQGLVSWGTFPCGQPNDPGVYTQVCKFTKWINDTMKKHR

Binder | IC50, inhibition of KLK7 cleavage of Mca-RPKPVE-Nval-WRK(Dnp) (bivalency corrected) [1] | IC50, inhibition of KLK5 cleavage of Boc-Val-Pro-Arg-AMC (bivalency corrected) [2] | IC50, inhibition of KLK7 cleavage of Mca-RPKPVE-Nval-WRK(Dnp) (bivalency corrected) [3] | IC50, inhibition of KLK5 cleavage of Boc-Val-Pro-Arg-AMC (bivalency corrected) [4] | IC50, inhibition of KLK7 cleavage of MCA peptide substrate (bivalency not accounted for) [5] | IC50, inhibition of KLK7 cleavage of MCA peptide substrate (bivalency not accounted for) [6]
hu.14H11c.L2H11-hIgG1 (antibody, V domains shown) VH: EQQLVESGGGLIQPGGSLRLSCAASGFSFSSSYYMSWVRQAPGKGLEWVSSIYAGSSGAPYYAGWAKGRFTISRDNSKNTLYLQMNSLRAEDTAVYYCAREGFAETGGYGYAAYFNLWGPGTLVTVSS VL: DIQMTQSPSSLSASVGDRVTITCLASEDIASSVSWYQQKPGKAPKLLIYGASNLESGVPSRFSGSGSGTDYTLTISSLQPEDFATYYCLGGYSYSSTGTAFGGGTKVEIK | 0.29 nM | > 10 nM | 0.29 nM | > 10 nM | – | –
hu.10C5VY.hu14H11c.L2H11 WT (bispecific antibody, human IgG1, kappa, N297G) heavy 1: not shown light 1: DIQMTQSPSSLSASVGDRVTITCLASEDIASSVSWYQKKPGKAPKLLIYGASNLESGVPSRFSGSGSGTDYTLTISSLQPEDFATYYCLGGYSYSSTGTAFGGGTKVEIKRTVAAPSVFIFPPSDEQLKSGTASVECLLNNFYPREAKVQWKVDNALQSGNSQESVTEQDSKDSTYSLSSTLTLSKADYEKHKVYACEVTHQGLSSPVTKSFNRGEC heavy 2: EVQLVESGGGLVQPGGSLRLSCAASGFSLSSYGVTWVRKAPGKGLEWIGYITSVYGVSYYASWAKSRSTISRDTSKNTVYLQMGSLRAEDMAVYYCARENPDYGYAYDAWGQGTTVTVSSASTKGPSVFPLAPSSKSTSGGTAALGCLVKDYFPEPVTVSWNSGALTSGVHTFPAVLQSSGLYSLESVVTVPSSSLGTQTYICNVNHKPSNTKVDKKVEPKSCDKTHTCPPCPAPELLGGPSVFLFPPKPKDTLMISRTPEVTCVVVDVSHEDPEVKFNWYVDGVEVHNAKTKPREEQYGSTYRVVSVLTVLHQDWLNGKEYKCKVSNKALPAPIEKTISKAKGQPREPQVYTLPPSREEMTKNQVSLSCAVKGFYPSDIAVEWESNGQPENNYKTTPPVLDSDGSFFLVSKLTVDKSRWQQGNVFSCSVMHEALHNHYTQKSLSLSPGK light 2: AIRMTQSPSSFSASTGDRVTITCQASESISNELSWYQEKPGKAPKLLIYYASTLASGVPSRFSGSGSGTDFTLTISSLQPEDFATYYCAQGYGSSGVENVFGGGTKVEIKRTVAAPSVFIFPPSDEQLKSGTASVKCLLNNFYPREAKVQWKVDNALQSGNSQESVTEQDSKDSTYSLSSTLTLSKADYEKHKVYACEVTHQGLSSPVTKSFNRGEC | 0.37 nM | 0.67 nM | 0.37 nM | 0.73 nM | – | –
hu.10C5VY.hu14H11c.L2H11 LS (bispecific antibody, human IgG1, kappa, N297G) heavy 1: EQQLVESGGGLIQPGGSLRLSCAASGFSFSSSYYMSWVREAPGKGLEWVSSIYAGSSGAPYYAGWAKGRFTISRDNSKNTLYLQMNSLRAEDTAVYYCAREGFAETGGYGYAAYFNLWGPGTLVTVSSASTKGPSVFPLAPSSKSTSGGTAALGCLVKDYFPEPVTVSWNSGALTSGVHTFPAVLQSSGLYSLKSVVTVPSSSLGTQTYICNVNHKPSNTKVDKKVEPKSCDKTHTCPPCPAPELLGGPSVFLFPPKPKDTLMISRTPEVTCVVVDVSHEDPEVKFNWYVDGVEVHNAKTKPREEQYGSTYRVVSVLTVLHQDWLNGKEYKCKVSNKALPAPIEKTISKAKGQPREPQVYTLPPSREEMTKNQVSLWCLVKGFYPSDIAVEWESNGQPENNYKTTPPVLDSDGSFFLYSKLTVDKSRWQQGNVFSCSVLHEALHSHYTQKSLSLSPGK light 1: DIQMTQSPSSLSASVGDRVTITCLASEDIASSVSWYQKKPGKAPKLLIYGASNLESGVPSRFSGSGSGTDYTLTISSLQPEDFATYYCLGGYSYSSTGTAFGGGTKVEIKRTVAAPSVFIFPPSDEQLKSGTASVECLLNNFYPREAKVQWKVDNALQSGNSQESVTEQDSKDSTYSLSSTLTLSKADYEKHKVYACEVTHQGLSSPVTKSFNRGEC heavy 2: EVQLVESGGGLVQPGGSLRLSCAASGFSLSSYGVTWVRKAPGKGLEWIGYITSVYGVSYYASWAKSRSTISRDTSKNTVYLQMGSLRAEDMAVYYCARENPDYGYAYDAWGQGTTVTVSSASTKGPSVFPLAPSSKSTSGGTAALGCLVKDYFPEPVTVSWNSGALTSGVHTFPAVLQSSGLYSLESVVTVPSSSLGTQTYICNVNHKPSNTKVDKKVEPKSCDKTHTCPPCPAPELLGGPSVFLFPPKPKDTLMISRTPEVTCVVVDVSHEDPEVKFNWYVDGVEVHNAKTKPREEQYGSTYRVVSVLTVLHQDWLNGKEYKCKVSNKALPAPIEKTISKAKGQPREPQVYTLPPSREEMTKNQVSLSCAVKGFYPSDIAVEWESNGQPENNYKTTPPVLDSDGSFFLVSKLTVDKSRWQQGNVFSCSVLHEALHSHYTQKSLSLSPGK light 2: AIRMTQSPSSFSASTGDRVTITCQASESISNELSWYQEKPGKAPKLLIYYASTLASGVPSRFSGSGSGTDFTLTISSLQPEDFATYYCAQGYGSSGVENVFGGGTKVEIKRTVAAPSVFIFPPSDEQLKSGTASVKCLLNNFYPREAKVQWKVDNALQSGNSQESVTEQDSKDSTYSLSSTLTLSKADYEKHKVYACEVTHQGLSSPVTKSFNRGEC | 0.34 nM | 0.54 nM | 0.36 nM | 0.58 nM | – | –
hu10C5VY (antibody, V domains shown) VH: EVQLVESGGGLVQPGGSLRLSCAASGFSLSSYGVTWVRQAPGKGLEWIGYITSVYGVSYYASWAKSRSTISRDTSKNTVYLQMGSLRAEDMAVYYCARENPDYGYAYDAWGQGTTVTVSS VL: AIRMTQSPSSFSASTGDRVTITCQASESISNELSWYQQKPGKAPKLLIYYASTLASGVPSRFSGSGSGTDFTLTISSLQPEDFATYYCAQGYGSSGVENVFGGGTKVEIK | > 10 nM | 0.46 nM | > 10 nM | 0.56 nM | – | –
14H11 (antibody, V domains shown) VH: QSLEESGGDLVKPGASLTLTCTASGFSFSSSYYMCWVRQAPGKGLEWIASIYAGSSGAPYYAGWAKGRFTISKTSSTAVTLQMSSLTAADTATYFCAREGFAETGGYGYAAYFNLWGPGTLVTVSS VL: AIEMTQSPPSLSASVGETVRIRCLASEDIASSVSWYQQKPGKPPTLLIYGASNLESGVPPRFTGSGSGTDYTLTIGGVQAEDAATYYCLGGYSYSSTGTAFGAGTKVEIK | – | – | – | – | 0.11 nM | 0.15 nM
